From patent US20230020546A1, “APPLICATION OF PROGESTIN IN PREPARATION OF DRUG INHIBITING CYTOKINE STORM” (SHENZHEN EVERGREEN THERAPEUTICS CO., LTD., priority 2020, published 2023)

What was measured:
hu-SCID mice [1] = assay: Rectal temperature after antibody injection in hu-SCID mice; type: in vivo
[2] = test system: circulating cytokines in hu-SCID mice; assay: Circulating cytokines in plasma of hu-SCID mice after OKT3 injection (multiplex immunoassay); type: in vivo; details: for Inhibition of OKT3-induced immune (cytokine) storm in an animal model: hu-SCID mice, overall conclusion; for IFN-γ Concentration / IL-1β Concentration / IL-2 Concentration / IL-4 Concentration / IL-5 Concentration / IL-6 Concentration / IL-10 Concentration / TNF-α Concentration: OKT3 10 μg IP alone
Procedure: […] A multiplex immunoassay system was then applied to the collected heparinized plasma to analyze cytokines. Cytokines measured included human IL-1β, IL-2, IL-4, IL-5, IL-6, IL-10, IL-12 (p70), IL-13, IL-17, IFN-γand TNF-α. […] The activation markers thereof were then analyzed by flow cytometry. Human peripheral blood mononuclear cells in the mouse spleen were blocked with 2.4G2 and then stained with fluorescently labeled CD69, CD25, CD45 and CD3.
After antibody injection, in order to determine if a cytokine storm was induced, we detected cytokines (human IL-1β, IL-2, IL-4, IL-5, IL-6, IL-10, IL-12 (p70), IL-13, IL17, IFN-γ and TNF-α) in the plasma of the hu-SCID mice.
On days 8 and 9 after intravenous injection of PBMCs in humanized mice (48 hours and 24 hours before antibody injection), a candidate drug PR2005 (5 mg/kg) was injected intraperitoneally to the animals. […] The results are detailed in Tables 1-4.

hu-SCID mice [3] = assay: Clinical symptoms / clinical score after antibody injection in hu-SCID mice
Procedure: (§1) Each humanized mouse for the test was first intravenously injected with 2×10^7 PBMCs. After 10 days, each mouse was injected with OKT3 or control IgG (2 μg or 10 μg, IV or IP).
(§2) Clinical score measurement: as recommended by the Canadian Council for Animal Care (www.ccac.ca/en /standards/guidelines), we conducted preliminary studies to determine the most appropriate clinical symptoms and scoring criteria. […] Score: 0=normal activity; 1=normal activity, hairs upright, and tiptoe gait; 2=arched back, decreased activity, but there are still activities; 3=too few activities, but there are still activities when prompted; 4=dying. Mice with a clinical score of 4 were sacrificed.

hu-SCID mice [4] = details: mouse, in vivo, ip
Procedure: as §1, §2

CCCCCC(=O)O[C@]1(C(C)=O)CC[C@H]2[C@@H]3CCC4=CC(=O)CC[C@]4(C)[C@H]3CC[C@@]21C [PR2005, hydroxyprogesterone caproate, reference compound]
Body temperature change after receiving OKT3 (hu-SCID mice [1]; PR2005 5 mg/kg IP, 48 hours and 24 hours before antibody injection): no significant changes in body temperature
Concentration of cytokines in the blood vs animals using OKT3 alone ([2]; PR2005 5 mg/kg IP before OKT3): substantially lower
Inhibition of OKT3-induced immune (cytokine) storm in an animal model [2]: can inhibit the OKT3-induced immune storm
Inhibition of OKT3-induced immune (cytokine) storm in an animal model ([2]; listed as hydroxyprogesterone caproate): can inhibit the cytokine storm

OKT3: muromonab-CD3 antibody used to induce the cytokine storm in hu-SCID mice
Symptom observation (hu-SCID mice [3]; OKT3 2 μg IP): unaffected
Mice needing to be euthanized (hu-SCID mice [3]; OKT3 2 μg IV): Two of four
Response (symptoms) (hu-SCID mice [3]; OKT3 2 μg IV, within 1 h): moderate to severe
Clinical score (hu-SCID mice [3]; OKT3 10 μg IP): moderate
Response (symptoms) (hu-SCID mice [3]; OKT3 10 μg IV): severe
Mice sacrificed (hu-SCID mice [3]; OKT3 10 μg IV, at 1 h): all mice were sacrificed
Mice dying and sacrificed (hu-SCID mice [4]): one of 5
Rectal temperature (hu-SCID mice [1]; OKT3 2 μg IP, 0 h): 37.7 °C
Rectal temperature (hu-SCID mice [1]; OKT3 2 μg IP, 1 h): 35.6 °C
Rectal temperature (hu-SCID mice [1]; OKT3 2 μg IP, 2 h): 34.8 °C
Rectal temperature (hu-SCID mice [1]; OKT3 2 μg IP, 5 h): 35.4 °C
Rectal temperature change (hu-SCID mice [1]; OKT3 2 μg IP, similar to control human IgG): moderate changes
Rectal temperature (hu-SCID mice [1]; OKT3 2 μg IV, 0 h): 37.7 °C
Rectal temperature (hu-SCID mice [1]; OKT3 2 μg IV, 1 h): 31.7 °C
Rectal temperature (hu-SCID mice [1]; OKT3 2 μg IV, 2 h): 33.8 °C
Rectal temperature (hu-SCID mice [1]; OKT3 2 μg IV, 5 h): 34.9 °C
Transient hypothermia (rectal temperature) (hu-SCID mice [1]; OKT3 2 μg IV, at 1 h, partial recovery after 5 h): about 32 °C
Rectal temperature decrease (from 37° C.) (hu-SCID mice [1]; OKT3 10 μg IP or IV, within 1 h): ≤ 32 °C
Rectal temperature (hu-SCID mice [1]; OKT3 10 μg IP, 0 h): 37.7 °C
Rectal temperature (hu-SCID mice [1]; OKT3 10 μg IP, 1 h): 31.7 °C
Rectal temperature (hu-SCID mice [1]; OKT3 10 μg IP, 2 h): 31.1 °C
Rectal temperature (hu-SCID mice [1]; OKT3 10 μg IP, 5 h): 30.6 °C
Rectal temperature (hu-SCID mice [1]; OKT3 10 μg IV, 0 h): 37.7 °C
Rectal temperature (hu-SCID mice [1]; OKT3 10 μg IV, 1 h): 31.9 °C
Induced cytokines ([2]; OKT3 2 μg IP or IV, any time point): rarely detected
Time of TNF-α peak ([2]; OKT3 10 μg IP): 1 h
IFN-γ Concentration ([2]; 1 h): 7015 pg/mL
IL-1β Concentration ([2]; 1 h): 44.0 pg/mL
IL-2 Concentration ([2]; 1 h): 39.0 pg/mL
IL-4 Concentration ([2]; 1 h): 61 pg/mL
IL-5 Concentration ([2]; 1 h): 72 pg/mL
IL-6 Concentration ([2]; 1 h): 96 pg/mL
IL-10 Concentration ([2]; 1 h): 3319 pg/mL
TNF-α Concentration ([2]; 1 h): 1409 pg/mL
IFN-γ Concentration ([2]; 2 h): 23574 pg/mL
IL-1β Concentration ([2]; 2 h): 77.5 pg/mL
IL-2 Concentration ([2]; 2 h): 75.9 pg/mL
IL-4 Concentration ([2]; 2 h): 182 pg/mL
IL-5 Concentration ([2]; 2 h): 98 pg/mL
IL-6 Concentration ([2]; 2 h): 160 pg/mL
IL-10 Concentration ([2]; 2 h): 11001 pg/mL
TNF-α Concentration ([2]; 2 h): 1127 pg/mL
IFN-γ Concentration ([2]; 5 h): 25783 pg/mL
IL-1β Concentration ([2]; 5 h): 97.4 pg/mL
IL-2 Concentration ([2]; 5 h): 89.4 pg/mL
IL-4 Concentration ([2]; 5 h): 259 pg/mL
IL-5 Concentration ([2]; 5 h): 158 pg/mL
IL-6 Concentration ([2]; 5 h): 252 pg/mL
IL-10 Concentration ([2]; 5 h): 20052 pg/mL
TNF-α Concentration ([2]; 5 h): 655 pg/mL
Induction of cytokines (IL-1β, IL-2, IL-4, IL-5, IL-6, IL-10, IFN-γ) ([2]; OKT3 10 μg IP, concentrations gradually increased within 5 h): may induce production of multiple cytokines
